Measurements as given in patent US20180022805A1.

Target: pre-B cell receptor (pre-BCR) on the surface of live BCP-ALL cells (human) (UniProt P15814)
Assay: single particle tracking with hidden Markov model (Viterbi plot), one receptor pair on 697 cells

Sequence of pre-B cell receptor (pre-BCR) on the surface of live BCP-ALL cells (chain): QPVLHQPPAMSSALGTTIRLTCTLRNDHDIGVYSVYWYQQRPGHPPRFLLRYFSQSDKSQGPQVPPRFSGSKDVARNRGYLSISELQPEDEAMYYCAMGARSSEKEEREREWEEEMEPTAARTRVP
Sequence of pre-B cell receptor (pre-BCR) on the surface of live BCP-ALL cells (P15814 38-213): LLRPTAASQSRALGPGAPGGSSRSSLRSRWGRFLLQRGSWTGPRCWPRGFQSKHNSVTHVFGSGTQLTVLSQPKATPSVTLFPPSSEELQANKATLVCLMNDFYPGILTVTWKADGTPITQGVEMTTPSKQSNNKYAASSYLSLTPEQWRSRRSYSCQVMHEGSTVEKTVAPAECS
Sequence of pre-B cell receptor (pre-BCR) on the surface of live BCP-ALL cells (P11912 33-226): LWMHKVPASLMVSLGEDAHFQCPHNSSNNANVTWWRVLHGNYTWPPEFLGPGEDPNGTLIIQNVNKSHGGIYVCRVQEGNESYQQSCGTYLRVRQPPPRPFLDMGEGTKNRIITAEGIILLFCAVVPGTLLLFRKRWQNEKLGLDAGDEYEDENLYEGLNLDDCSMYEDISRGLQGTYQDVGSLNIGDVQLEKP
Sequence of pre-B cell receptor (pre-BCR) on the surface of live BCP-ALL cells (P40259 29-229): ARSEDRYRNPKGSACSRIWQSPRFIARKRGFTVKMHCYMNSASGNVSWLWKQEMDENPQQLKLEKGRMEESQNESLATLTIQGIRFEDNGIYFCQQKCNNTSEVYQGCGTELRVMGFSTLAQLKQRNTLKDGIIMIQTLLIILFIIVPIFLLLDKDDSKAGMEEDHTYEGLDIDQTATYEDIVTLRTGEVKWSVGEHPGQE

homo-interaction lifetime: < 3 s
Substance: pre-B cell receptor (pre-BCR) on the surface of live BCP-ALL cells (from UniProt P15814 38-213; P11912 33-226; P40259 29-229)
